Experimental data from paper PMC11388340, “HIRA complex deposition of histone H3.3 is driven by histone tetramerization and histone-DNA binding”.

Tests used:
HIRA-WB;UBN1-NM;H3.3/H4 = HIRA-WB;UBN1-NM;H3.3/H4 (human;human;Homo sapiens (H3.3); …, UniProt P54198;Q9NPG3;P84243;P62799 1-473;1-584;2-136;2-103, ||); experiment: fluorescence polarization; 20 mM HEPES pH 7.5, 150 mM NaCl, 0.5 mM TCEP, 0.001% Tween-20, 1 mg/ml BSA; 10 nM probe; temperature not stated
H3.3/H4 = H3.3/H4 (Homo sapiens (H3.3); Xenopus laevis (H4), UniProt P84243;P62799 2-136;2-103); experiment: as above
HIRA-WB;UBN1-NM = HIRA-WB;UBN1-NM (human;human, UniProt P54198;Q9NPG3 1-473;1-584, |); experiment: fluorescence polarization; no histones; 20 mM HEPES pH 7.5, 150 mM NaCl, 0.5 mM TCEP, 0.001% Tween-20, 1 mg/ml BSA; 10 nM probe; temperature not stated; conditions: protein: recombinant;recombinant; tags: N-terminal His;; copies: 1;1; label: 5'-FAM on sense strand; blunt
HIRA-WB;UBN1-NM;ASF1a-C = HIRA-WB;UBN1-NM;ASF1a-C (human;human;human?, UniProt P54198;Q9NPG3;Q9Y294 1-473;1-584;1-156, ||); experiment: as above; conditions: protein: recombinant;recombinant;recombinant; tags: N-terminal His;;GST cleaved with precision protease; copies: 1;1;1; label: 5'-FAM on sense strand; blunt

B1: 10x ATGC 40-mer dsDNA (dsDNA)
DNA 1: ATGCATGCATGCATGCATGCATGCATGCATGCATGCATGC
DNA 2: GCATGCATGCATGCATGCATGCATGCATGCATGCATGCAT
Kd (HIRA-WB;UBN1-NM;H3.3/H4): 40 nM | Kd (H3.3/H4): 240 nM | Kd (HIRA-WB;UBN1-NM): 370 nM | Kd (HIRA-WB;UBN1-NM;ASF1a-C): 970 nM
